According to patent publication CN109232738A (GENSCRIPT NANJING CO LTD, dated 2019):
Residue numbers refer to the chain shown, from its start. Values belong to the binder of their own block, whether it stands above or below them.

What was measured:
[1] = molecular target: T1, 人OX40 expressed on cells (表达OX40的CHO细胞; OX40过表达的功能细胞系) (human, UniProt P43489 29-277); assay: cell-based or functional assay
T1 sequence (looked up): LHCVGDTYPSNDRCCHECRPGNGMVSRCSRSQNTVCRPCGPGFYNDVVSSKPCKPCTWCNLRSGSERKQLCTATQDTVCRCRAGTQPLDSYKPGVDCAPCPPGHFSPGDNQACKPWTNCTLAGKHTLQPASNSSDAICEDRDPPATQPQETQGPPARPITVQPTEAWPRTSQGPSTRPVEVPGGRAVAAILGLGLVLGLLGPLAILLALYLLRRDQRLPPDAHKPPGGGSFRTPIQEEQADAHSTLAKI

[2] = molecular target: T1, 人OX40 expressed on cells (表达OX40的CHO细胞; …); assay: flow cytometry on OX40-expressing CHO cells, 5 μg/ml antibody

B1: 83C2H3B6 (antibody, V domains shown)
VH: QVQLKQSGPGLVQPSQSLSITCTVSGFSLTSYGVHWVRQSPGKGLEWLGVIWSGGSTDYNAAYISRLSISKDNSKSQVFFKMNSLQADDTATYYCANYDYDVPYWGQGTLVTVSA
VL: DIQMTQSPASQSASLGESVTITCLASQTIGTWLAWYQQKPGKSPQLLIYAATSLADGVPSRFSGSGSGTKFSFKISSLQAEDFVSYYCQQLYSTPFTFGSGTKLEIK
- inhibition of IL-8 secretion by OX40 over-expressing functional cell line, IC50 [1]: 68 nM
- 结合信号值 relative to control sample (fold) [2]: 200 fold

B3: 99A2A8D4E8 (antibody, V domains shown)
VH: QIQLVQSGPELKKPGETVKISCKASGYTFTDYSMHWVKQAPGKGLKWMGWISTETGEPTYADDFKGRFAFSLETSASTAYLQIKNLKNEDTASYFCARVRPWYLAVWGAGTTVTVSS
VL: DIQMTQTTSSLSASLGDRVTISCRASQDISNYLNWYQQKPDGTVKLLIYYTSRLYSGVPSRFSGSGSGADYSLTVSNLEQEDIATYFCQQANTLPLTFGAGTKLELK
- IL-8 secretion by OX40 over-expressing functional cell line (activation), EC50 [1]: 0.58 nM
- 结合信号值 relative to control sample (fold) [2]: 200 fold

B4: 68G8C4B12 (antibody, V domains shown)
VH: QVQLKESGPGLVAPSQSLSITCTVSGFSLTNYGVHWVRQPPGKGLEWLGVIWDDGNTNYNSALMSRLSINKDNSKSQVFVTMNSLQIDDTAMYYCALFDGYYGWFAYWGQGTLVTVSS
VL: DIQMTQTTSSLSASLGDRVTISCRASQDISFYLNWYQQKPDGTVKLLIYYTSRLHSGVPSRFSGSGSGTDYSLTISNLEQEDFATYFCQQGHTLPWTFGGGSKLEIK
- inhibition of IL-8 secretion by OX40 over-expressing functional cell line, given as EC50 [1]: 2.36 nM
- 结合信号值 relative to control sample (fold) [2]: 200 fold

B6: OX40L (ligand, UniProt P23510 51-183, looked up)
chain: QVSHRYPRIQSIKVQFTEYKKEKGFILTSQKEDEIMKVQNNSVIINCDGFYLISLKGYFSQEVNISLHYQKDEEPLFQLKKVRSVNSLMVASLTYKDKVYLNVTTDNTSLDDFHVNGGELILIHQNPGEFCVL
- IL-8 secretion by OX40 over-expressing functional cell line (activation), EC50 [1]: 2.18 nM

Now from value to binder:

- inhibition of IL-8 secretion by OX40 over-expressing functional cell line, IC50 [1]: 1.45 nM
- 结合信号值 relative to control sample (fold) [2]: 200 fold
B2: 51E2G12D6 (antibody, V domains shown)
VH: QVTLKESGPGILQPSQTLSLTCSFSGFSLDTSGMGVTWIRQPSGKGLEWLAHIYWDDDKHYNPSLKSRLTISKDTSSTQVLLKITSVVTADTATYYCARRALGAMDYWGQGTSVTVSS
VL: B4 VL with F31H, R53T, F83I, H92K, W96P, G100A, S102T, K103E, I106L

- inhibition of IL-8 secretion by OX40 over-expressing functional cell line, IC50 [1]: 8.23 nM
- 结合信号值 relative to control sample (fold) [2]: 200 fold
B5: 17B12G2C3 (antibody, V domains shown)
VH: EVQLQQSGPELVKPGASVKISCKASGYTFTDYYMNWVKQSHGKSLEWIGDINPNNGGTNYNQKFKGKATLTVDKSSSTTYMELRSLTSEDSAVYYCARSGGWLLQDYWGQGTTLTVSS
VL: B4 VL with S22T, Q27L, F31N, L46F, F83I, H92N, W96Y, S102T

- IL-8 secretion by OX40 over-expressing functional cell line (activation), EC50 [1]: 6.5 nM
- 结合信号值 relative to control sample (fold) [2]: 200 fold
B7: 9G4C8B11 (antibody, V domains shown)
VH: DVQLQESGPGLVKPSQSLSLTCSVTGYSITSGYYWNWIRQFPGNKLEWMGYISYDGSNNYNPSLKNRISITRDTSKNQFFLKLNSVTTEDTATYYCARDRAYYSNYVGWYFDVWGTGTTVTVSS
VL: DIVLTQSPASLAVSLGQRATISCRASESVDNYGNSFMHWYQQTPGQPPKLLIYRASNLESGIPAKFSGSGSRTDFTLTINPVEADDVATYYCQQSNEDPLTFGAGTKLELK
